In US20230220589A1:
Changes are numbered by the printed parent chain. Blank lines part the entries; values can stand above or below the binder they belong to.

Columns and labels:
[1] = target: M44-modified S NTAA target peptides; test: encoding assay; P2 A
[2] = target: M44-modified T NTAA target peptides; test: encoding assay; P2 A;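 also: fraction of recording tags encoded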
[3] = target: M44-modified P NTAA target peptides; test: encoding assay; P2 A;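 also: fraction of recording tags encoded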
[4] = target: M44-modified D NTAA target peptides; test: encoding assay; P2 A;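 also: fraction of recording tags encoded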
[5] = target: M44-modified P NTAA target peptides; test: encoding assay; P2 I;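 also: fraction of recording tags encoded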
[6] = target: M17-modified D NTAA target peptides; test: encoding assay; P2 N;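 also: fraction of recording tags encoded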
[7] = target: M17-modified P NTAA target peptides; test: encoding assay; P2 L;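 also: fraction of recording tags encoded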
[8] = target: M17-modified Q NTAA target peptides; test: encoding assay; P2 L;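 also: fraction of recording tags encoded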
[9] = target: M17-modified I NTAA target peptides; test: encoding assay; P2 L;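 also: fraction of recording tags encoded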
[10] = target: M17-modified G NTAA target peptides; test: encoding assay; P2 L;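 also: fraction of recording tags encoded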
[11] = target: M17-modified E NTAA target peptides; test: encoding assay; P2 L;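 also: fraction of recording tags encoded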
[12] = target: M17-modified V NTAA target peptides; test: encoding assay; P2 L;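 also: fraction of recording tags encoded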
[13] = target: M17-modified W NTAA target peptides; test: encoding assay; P2 L;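 also: fraction of recording tags encoded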
[14] = target: M17-modified A NTAA target peptides; test: encoding assay; P2 L;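 also: fraction of recording tags encoded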
[15] = target: M17-modified M NTAA target peptides; test: encoding assay; P2 L;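 also: fraction of recording tags encoded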
[16] = target: M17-modified S NTAA target peptides; test: encoding assay; P2 L;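 also: fraction of recording tags encoded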
[17] = target: M17-modified L NTAA target peptides; test: encoding assay; P2 L;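 also: fraction of recording tags encoded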
[18] = target: M17-modified H NTAA target peptides; test: encoding assay; P2 L;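 also: fraction of recording tags encoded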
[19] = target: M17-modified F NTAA target peptides; test: encoding assay; P2 L;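 also: fraction of recording tags encoded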
[20] = target: M17-modified D NTAA target peptides; test: encoding assay; P2 L;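 also: fraction of recording tags encoded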
[21] = target: M17-modified T NTAA target peptides; test: encoding assay; P2 L;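 also: fraction of recording tags encoded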
[22] = target: M17-modified N NTAA target peptides; test: encoding assay; P2 L;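 also: fraction of recording tags encoded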
[23] = target: M17-modified Y NTAA target peptides (M17-Y-P2-peptide); test: encoding assay; P2 L;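 also: fraction of recording tags encoded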
[24] = target: M17-modified P NTAA target peptides; test: encoding assay; P2 A;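 also: fraction of recording tags encoded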
[25] = target: M17-modified Q NTAA target peptides; test: encoding assay; P2 A;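 also: fraction of recording tags encoded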
[26] = target: M17-modified G NTAA target peptides; test: encoding assay; P2 A;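 also: fraction of recording tags encoded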
[27] = target: M17-modified E NTAA target peptides; test: encoding assay; P2 A;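 also: fraction of recording tags encoded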
[28] = target: M17-modified V NTAA target peptides; test: encoding assay; P2 A;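 also: fraction of recording tags encoded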
[29] = target: M17-modified W NTAA target peptides; test: encoding assay; P2 A;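 also: fraction of recording tags encoded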
[30] = target: M17-modified M NTAA target peptides; test: encoding assay; P2 A;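 also: fraction of recording tags encoded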
[31] = target: M17-modified L NTAA target peptides; test: encoding assay; P2 A;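 also: fraction of recording tags encoded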
[32] = target: M17-modified H NTAA target peptides; test: encoding assay; P2 A;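 also: fraction of recording tags encoded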
[33] = target: M17-modified F NTAA target peptides; test: encoding assay; P2 A;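 also: fraction of recording tags encoded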
[34] = target: M17-modified D NTAA target peptides; test: encoding assay; P2 A;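 also: fraction of recording tags encoded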
[35] = target: M17-modified T NTAA target peptides; test: encoding assay; P2 A;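 also: fraction of recording tags encoded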
[36] = target: M17-modified N NTAA target peptides; test: encoding assay; P2 A;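 also: fraction of recording tags encoded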
[37] = target: M17-modified Y NTAA target peptides (M17-Y-P2-peptide); test: encoding assay; P2 A;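 also: fraction of recording tags encoded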
[38] = target: M17-modified P NTAA target peptides; test: encoding assay; P2 I;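 also: fraction of recording tags encoded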
[39] = target: M17-modified Q NTAA target peptides; test: encoding assay; P2 I;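 also: fraction of recording tags encoded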
[40] = target: M17-modified I NTAA target peptides; test: encoding assay; P2 I;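 also: fraction of recording tags encoded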
[41] = target: M17-modified G NTAA target peptides; test: encoding assay; P2 I;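 also: fraction of recording tags encoded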
[42] = target: M17-modified E NTAA target peptides; test: encoding assay; P2 I;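 also: fraction of recording tags encoded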
[43] = target: M17-modified V NTAA target peptides; test: encoding assay; P2 I;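 also: fraction of recording tags encoded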
[44] = target: M17-modified W NTAA target peptides; test: encoding assay; P2 I;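 also: fraction of recording tags encoded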
[45] = target: M17-modified A NTAA target peptides; test: encoding assay; P2 I;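 also: fraction of recording tags encoded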
[46] = target: M17-modified M NTAA target peptides; test: encoding assay; P2 I;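 also: fraction of recording tags encoded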
[47] = target: M17-modified S NTAA target peptides; test: encoding assay; P2 I;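 also: fraction of recording tags encoded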
[48] = target: M17-modified L NTAA target peptides; test: encoding assay; P2 I;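 also: fraction of recording tags encoded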
[49] = target: M17-modified H NTAA target peptides; test: encoding assay; P2 I;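 also: fraction of recording tags encoded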
[50] = target: M17-modified F NTAA target peptides; test: encoding assay; P2 I;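 also: fraction of recording tags encoded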
[51] = target: M17-modified D NTAA target peptides; test: encoding assay; P2 I;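 also: fraction of recording tags encoded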
[52] = target: M17-modified T NTAA target peptides; test: encoding assay; P2 I;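 also: fraction of recording tags encoded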
[53] = target: M17-modified N NTAA target peptides; test: encoding assay; P2 I;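 also: fraction of recording tags encoded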
[54] = target: M17-modified Y NTAA target peptides (M17-Y-P2-peptide); test: encoding assay; P2 I;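 also: fraction of recording tags encoded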

B1: engineered M44-A binder (SEQ ID NO: 42) (designed binder, not shown: small tags and cut ends; large carriers)
chain: QVSVQPNFQQDKFLGRWFVAGLASNSSWDREKVAALSGAKMVVAPATDGGLNVTRTMLRKNQCETYTGLLQPAGSLGSYSWRSPHPGSTGSESVVETDYDQYALVYGQGSKGPGEDLRAAALWSRTQTPRAELKEKFTAFSKAQGFTEDTIVFLPQTDKCMTEQ
- encoding yield [1]: 0.01
- encoding yield [2]: 0.01
- encoding yield [3]: 0.01
- encoding yield [4]: 0.02
- encoding yield [5]: 0.01

B4: upgraded binder after additional maturation round (SEQ ID NO: 62) (designed binder, not shown: small tags and cut ends; large carriers)
chain: TVPDRSEIAGKWYVVALASNTEFYLRGKDRVKSAMVRISFQGEDELKVSSAVPSPNGCYKVERTWKKTSDDGEVYNSRAAKLKVEVLDTDYKSYAVIYATRVKDRRTDHQMILYSRSPDVSPAATAIFRKLAGERNYTDEMVAMLPRQEECTVDEV
- encoding yield [6]: 0.02
- encoding yield [7]: 0.03
- encoding yield [8]: 0.03
- encoding yield [9]: 0.06
- encoding yield [10]: 0.02
- encoding yield [11]: 0.03
- encoding yield [12]: 0.04
- encoding yield [13]: 0.04
- encoding yield [14]: 0.02
- encoding yield [15]: 0.03
- encoding yield [16]: 0.03
- encoding yield [17]: 0.12
- encoding yield [18]: 0.04
- encoding yield [19]: 0.08
- encoding yield [20]: 0.02
- encoding yield [21]: 0.02
- encoding yield [22]: 0.03
- encoding yield [23]: 0.29
- encoding yield [24]: 0.01
- encoding yield [25]: 0.02
- encoding yield [26]: 0.03
- encoding yield [27]: 0.02
- encoding yield [28]: 0.02
- encoding yield [29]: 0.08
- encoding yield [30]: 0.03
- encoding yield [31]: 0.04
- encoding yield [32]: 0.02
- encoding yield [33]: 0.09
- encoding yield [34]: 0.02
- encoding yield [35]: 0.01
- encoding yield [36]: 0.03
- encoding yield [37]: 0.24
- encoding yield [38]: 0.01
- encoding yield [39]: 0.03
- encoding yield [40]: 0.08
- encoding yield [41]: 0.02
- encoding yield [42]: 0.03
- encoding yield [43]: 0.05
- encoding yield [44]: 0.04
- encoding yield [45]: 0.03
- encoding yield [46]: 0.02
- encoding yield [47]: 0.02
- encoding yield [48]: 0.05
- encoding yield [49]: 0.04
- encoding yield [50]: 0.05
- encoding yield [51]: 0.02
- encoding yield [52]: 0.02
- encoding yield [53]: 0.03
- encoding yield [54]: 0.31

Now from value to binder:

- encoding yield [1]: 0.01
- encoding yield [2]: 0.01
- encoding yield [3]: 0.01
- encoding yield [4]: 0.02
- encoding yield [5]: 0.01
B2: engineered M44-L binder (SEQ ID NO: 31) (designed binder, not shown: small tags and cut ends; large carriers)
chain: QDSTQNLIPAPPLISVPLQPGFWTERFQGRWFLVGFAGNAVQKERQSRLTMQSLILELQEDNSYNITAINVRGQGCRYIISTLVPSSRPGQFTLGNIHSYPQIQSLDVQVADTDYDQFAMVFLQGTSENKQYFEVALAGRTKGLSDELKERFVSFAKSLGLKDNNIVFSVPTDQCIDN

- encoding yield [6]: 0.02
- encoding yield [7]: 0.02
- encoding yield [8]: 0.02
- encoding yield [9]: 0.01
- encoding yield [10]: 0.02
- encoding yield [11]: 0.03
- encoding yield [12]: 0.02
- encoding yield [13]: 0.01
- encoding yield [14]: 0.02
- encoding yield [15]: 0.03
- encoding yield [16]: 0.03
- encoding yield [17]: 0.06
- encoding yield [18]: 0.02
- encoding yield [19]: 0.04
- encoding yield [20]: 0.02
- encoding yield [21]: 0.01
- encoding yield [22]: 0.03
- encoding yield [23]: 0.17
- encoding yield [24]: 0.01
- encoding yield [25]: 0.02
- encoding yield [26]: 0.02
- encoding yield [27]: 0.01
- encoding yield [28]: 0.01
- encoding yield [29]: 0.04
- encoding yield [30]: 0.02
- encoding yield [31]: 0.02
- encoding yield [32]: 0.02
- encoding yield [33]: 0.04
- encoding yield [34]: 0.01
- encoding yield [35]: 0.01
- encoding yield [36]: 0.02
- encoding yield [37]: 0.12
- encoding yield [38]: 0.01
- encoding yield [39]: 0.02
- encoding yield [40]: 0.05
- encoding yield [41]: 0.01
- encoding yield [42]: 0.03
- encoding yield [43]: 0.03
- encoding yield [44]: 0.02
- encoding yield [45]: 0.02
- encoding yield [46]: 0.01
- encoding yield [47]: 0.01
- encoding yield [48]: 0.02
- encoding yield [49]: 0.04
- encoding yield [50]: 0.03
- encoding yield [51]: 0.02
- encoding yield [52]: 0.01
- encoding yield [53]: 0.03
- encoding yield [54]: 0.17
B3: engineered M17-Y binder (SEQ ID NO: 61) (designed binder, not shown: small tags and cut ends; large carriers)
chain: B4 chain with G27E, R30W, V36A, Q41L, R105G, D119E
